Data on six molecules can be found in patent US20240400705A1 (SYNERGY IMT, published 2024).

Test [1] concerns the target CD137 on cells (CD137 reporter cell line, Promega; expanded T cells) (UniProt Q07011 24-255, limits assumed). The experiment in a line: cell-based or functional assay.
Another test has as its target T1, CD3 on T cells (UniProt P07766 23-207).
T1 construct: whole, on cells; CD3 is a complex; also called T cell CD3
The experiment in a line: flow cytofluorimetry on expanded T cells, 250 nM; bar = MFI, marker = percent positive. As to the method:
(§1) The binding of the multispecific recombinant antigen binding molecules to expanded T cells (FIG. 6D) and to the colon tumor cell line DLD1 (FIG. 6A) was determined by flow cytofluorimetry. Binding was conducted with a saturating concentration (250 nM). The T cells were expanded in culture from immunocult ([…] Technologies) stimulated peripheral blood mononuclear cells that were maintained in culture for at least 30 days. Multispecific recombinant antigen binding molecules were produced in HEK293 cells and one-step purified by FPLC using a HiTrap Protein A column. The expression of various T cell markers or tumor antigens was determined using commercial antibodies specific for Trop2, CD137, MICA/MICB, Tim4, Tim1 (all purchased from Biolegend). […] Greater levels of binding to DLD1 are associated with binding to PS and in particular bivalent binding to PS (e.g., 17v7-18v9).

Test [2] deals with T2, TROP2 on DLD1 colon cancer cells (UniProt P09758 27-323, limits assumed).
T2 construct: whole, on cells
T2 sequence (looked up): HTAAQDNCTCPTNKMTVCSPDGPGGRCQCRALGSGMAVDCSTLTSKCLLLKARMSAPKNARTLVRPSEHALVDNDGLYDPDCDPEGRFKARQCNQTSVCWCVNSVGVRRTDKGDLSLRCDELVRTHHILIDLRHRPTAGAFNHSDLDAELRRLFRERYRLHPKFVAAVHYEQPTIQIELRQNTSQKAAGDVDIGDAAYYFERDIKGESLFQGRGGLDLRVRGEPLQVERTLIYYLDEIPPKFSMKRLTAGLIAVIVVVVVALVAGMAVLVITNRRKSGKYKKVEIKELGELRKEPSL
The experiment in a line: flow cytofluorimetry on DLD1 colon tumor cells, 250 nM; bar = MFI, marker = percent positive. As to the method:
as §1

For test [3], the target named is T2, TROP2 on DLD1 colon cancer cells. The experiment in a line: cell-based or functional assay.
For test [4] the target is unchanged. Description: flow cytofluorimetry on DLD1 colon tumor cells, 250 nM; bar = MFI, marker = percent positive; the molecule also carries a b2GP1 D5 domain for phosphatidylserine. On the procedure:
as §1

CD137 on cells (CD137 reporter cell line, Promega; expanded T cells), sequence (Q07011 24-255 limits assumed): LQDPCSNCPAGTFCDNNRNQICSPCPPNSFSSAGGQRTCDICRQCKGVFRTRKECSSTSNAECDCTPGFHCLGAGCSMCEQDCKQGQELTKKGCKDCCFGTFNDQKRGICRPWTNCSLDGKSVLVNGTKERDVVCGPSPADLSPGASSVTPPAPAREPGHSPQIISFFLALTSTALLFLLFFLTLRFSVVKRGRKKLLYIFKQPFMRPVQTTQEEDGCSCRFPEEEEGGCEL
T1 sequence (P07766 23-207): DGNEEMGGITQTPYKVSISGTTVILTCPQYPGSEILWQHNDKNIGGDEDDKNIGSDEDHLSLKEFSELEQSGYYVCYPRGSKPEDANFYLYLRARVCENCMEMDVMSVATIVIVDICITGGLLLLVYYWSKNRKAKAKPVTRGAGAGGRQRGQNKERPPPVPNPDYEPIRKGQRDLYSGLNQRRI

B1: TetrAx 20v8-18v26 (Trop2 x CD137, two CD137L domains) (bispecific antibody)
light: DIQLTQSPSSLSASVGDRVSITCKASQDVSIAVAWYQQKPGKAPKLLIYSASYRTTGVPDRFSGSGSGTDFTLTISSLQPEDFAVYYCQQHYITPLTFGAGTKVEIKRTVAAPSVFIFPPSDEQLKSGTASVVCLLNNFYPREAKVQWKVDNALQSGNSQESVTEQDSKDSTYSLSSTLTLSKADYEKQKVYACEVTHQGLSSPVTKSFLRGECGGPAGGGGGTHTCPPCPAPEAAGGPSVFLFPPKPKDTLMISRTPEVTCVVVDVSHEDPEVKFNWYVDGVEVHNAKTKPREEQYNSTYRVVSVLTVLHQDWLNGKEYKCKVSNKALPAPIEKTISKAKGQPREPQVCTLPPSRDELTKNQVSLSCAVKGFYPSDIAVEWESNGQPENNYKTTPPVLDSDGSFFLVSKLTVDKSRWQQGNVFSCSVMHEALHNHYTQKSLSLSPGKGGGGGGMFAQLVAQNVLLIDGPLSWYSDPGLAGVSLTGGLSYKEDTKELVVAKAGVYYVFFQLELRRVVAGEGSGSVSLALHLQPLRSAAGAAALALTVDLPPASSEARNSAFGFQGRLLHLSAGQRLGVHLHTEARARHAWQLTQGATVLGLFRVTP
heavy: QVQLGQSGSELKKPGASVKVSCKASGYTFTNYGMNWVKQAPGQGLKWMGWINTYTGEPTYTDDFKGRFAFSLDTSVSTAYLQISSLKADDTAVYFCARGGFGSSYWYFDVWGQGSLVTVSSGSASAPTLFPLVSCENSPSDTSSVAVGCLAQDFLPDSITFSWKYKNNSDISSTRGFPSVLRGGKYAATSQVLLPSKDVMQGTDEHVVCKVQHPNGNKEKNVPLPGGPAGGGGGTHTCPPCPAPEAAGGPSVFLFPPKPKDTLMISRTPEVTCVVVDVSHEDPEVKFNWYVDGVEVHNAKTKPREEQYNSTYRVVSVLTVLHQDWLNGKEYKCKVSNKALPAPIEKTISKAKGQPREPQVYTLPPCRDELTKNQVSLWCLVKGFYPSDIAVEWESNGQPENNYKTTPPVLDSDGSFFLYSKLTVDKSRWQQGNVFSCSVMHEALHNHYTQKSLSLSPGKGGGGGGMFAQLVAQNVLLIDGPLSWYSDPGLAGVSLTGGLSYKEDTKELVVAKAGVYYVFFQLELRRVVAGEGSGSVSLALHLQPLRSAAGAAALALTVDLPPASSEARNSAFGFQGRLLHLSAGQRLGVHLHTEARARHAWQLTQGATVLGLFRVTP
notes: also called dual CD137L TetrAx
As for B1, in test [1], the “CD137 signaling relative to the TetrAx with a single CD137L domain” value is 3 fold and the “T cell DLD1 cytotoxicity EC50” value was 300 pM. Also, the binding result in the test with CD3 on T cells was “no binding (tested: 250 nM)”.

B2: TetrAx 20v8-18v22 (Trop2 x CD137, one CD137L domain) (bispecific antibody)
light: B1 light
heavy: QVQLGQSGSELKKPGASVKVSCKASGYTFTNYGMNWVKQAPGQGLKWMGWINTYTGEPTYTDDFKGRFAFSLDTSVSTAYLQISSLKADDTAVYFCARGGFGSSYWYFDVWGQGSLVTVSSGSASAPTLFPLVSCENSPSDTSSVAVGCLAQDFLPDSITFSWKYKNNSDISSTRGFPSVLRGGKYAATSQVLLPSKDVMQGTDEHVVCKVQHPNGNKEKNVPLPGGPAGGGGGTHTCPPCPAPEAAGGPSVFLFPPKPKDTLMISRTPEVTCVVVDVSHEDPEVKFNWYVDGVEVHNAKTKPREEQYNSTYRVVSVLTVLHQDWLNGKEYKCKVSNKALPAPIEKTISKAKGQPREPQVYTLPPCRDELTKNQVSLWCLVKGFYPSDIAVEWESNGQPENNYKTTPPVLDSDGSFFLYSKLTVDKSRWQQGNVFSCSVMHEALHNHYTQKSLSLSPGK
notes: CD137L domain is residues 90 to 242 (THD)
Turning to B2, the “T cell DLD1 cytotoxicity” value in test [1] is 40 fold. The figures for the binding result (in the test with CD3 on T cells; in test [2]) were “no binding (tested: 250 nM)” and “binds”, respectively.

B3: TetrAx 17v17-18v23 (PS x Trop2 x CD3) (bispecific antibody)
light: DIQLTQSPSSLSASVGDRVSITCKASQDVSIAVAWYQQKPGKAPKLLIYSASYRTTGVPDRFSGSGSGTDFTLTISSLQPEDFAVYYCQQHYITPLTFGAGTKVEIKRTVAAPSVFIFPPSDEQLKSGTASVVCLLNNFYPREAKVQWKVDNALQSGNSQESVTEQDSKDSTYSLSSTLTLSKADYEKQKVYACEVTHQGLSSPVTKSFLRGECGGPAGGGGGTHTCPPCPAPEAAGGPSVFLFPPKPKDTLMISRTPEVTCVVVDVSHEDPEVKFNWYVDGVEVHNAKTKPREEQYNSTYRVVSVLTVLHQDWLNGKEYKCKVSNKALPAPIEKTISKAKGQPREPQVCTLPPSRDELTKNQVSLSCAVKGFYPSDIAVEWESNGQPENNYKTTPPVLDSDGSFFLVSKLTVDKSRWQQGNVFSCSVMHEALHNHYTQKSLSLSPGKGGGGGGASCKVPVKKATVVYQGERVKIQEKFKNGMLHGDKVSFFCKNKEKKCSYTEDAQCIDGTIEVPKCFKEHSSLAFWKTDASDVKPC
heavy: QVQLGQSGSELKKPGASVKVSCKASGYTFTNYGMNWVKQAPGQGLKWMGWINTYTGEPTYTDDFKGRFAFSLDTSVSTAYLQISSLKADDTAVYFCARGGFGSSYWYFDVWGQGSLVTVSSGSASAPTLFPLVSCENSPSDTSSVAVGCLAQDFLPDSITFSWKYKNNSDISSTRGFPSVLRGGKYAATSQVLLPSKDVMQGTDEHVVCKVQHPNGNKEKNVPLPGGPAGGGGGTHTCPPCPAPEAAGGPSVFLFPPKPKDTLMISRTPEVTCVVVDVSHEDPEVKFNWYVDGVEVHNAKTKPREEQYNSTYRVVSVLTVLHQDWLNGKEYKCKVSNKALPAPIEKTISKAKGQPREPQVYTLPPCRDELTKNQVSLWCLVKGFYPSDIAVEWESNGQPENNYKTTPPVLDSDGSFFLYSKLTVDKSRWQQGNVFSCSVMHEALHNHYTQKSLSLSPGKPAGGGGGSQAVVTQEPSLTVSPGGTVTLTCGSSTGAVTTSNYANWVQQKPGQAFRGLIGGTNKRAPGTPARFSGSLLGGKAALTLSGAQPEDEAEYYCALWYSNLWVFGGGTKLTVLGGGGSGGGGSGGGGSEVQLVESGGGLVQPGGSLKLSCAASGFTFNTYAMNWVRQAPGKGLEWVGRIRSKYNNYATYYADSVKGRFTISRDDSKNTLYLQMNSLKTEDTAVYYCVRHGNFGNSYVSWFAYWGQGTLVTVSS
Turning to B3, in test [3], the “DLD1 cytotoxicity EC50 (18 h, T cells)” value was 0.5 pM and the “DLD1 cytotoxicity EC50 in a 3D tumor model (spheroids, T cells 2:1)” value was found to be 21 pM.

B4: 17v17-18v22 (bispecific antibody)
light chain 17v17: B3 light
heavy chain 18v22: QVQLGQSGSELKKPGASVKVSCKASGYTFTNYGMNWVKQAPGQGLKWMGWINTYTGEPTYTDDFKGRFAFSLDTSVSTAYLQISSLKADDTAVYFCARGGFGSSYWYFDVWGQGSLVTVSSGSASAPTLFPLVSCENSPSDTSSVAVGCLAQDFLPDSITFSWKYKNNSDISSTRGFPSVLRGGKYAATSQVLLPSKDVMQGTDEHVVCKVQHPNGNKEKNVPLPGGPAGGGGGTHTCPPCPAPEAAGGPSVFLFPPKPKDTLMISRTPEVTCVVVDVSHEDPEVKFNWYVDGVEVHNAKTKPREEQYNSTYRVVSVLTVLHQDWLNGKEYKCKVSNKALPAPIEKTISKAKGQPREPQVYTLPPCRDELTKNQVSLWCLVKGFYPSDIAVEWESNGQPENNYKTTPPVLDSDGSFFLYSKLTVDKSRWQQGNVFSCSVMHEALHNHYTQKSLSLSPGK
notes: also called TROP2 - PS (control)
B4: the binding result in test [4] is “binds”.

B5: TetrAx 17v16-18v23 (Trop2 x CD3) (bispecific antibody)
light: DIQLTQSPSSLSASVGDRVSITCKASQDVSIAVAWYQQKPGKAPKLLIYSASYRTTGVPDRFSGSGSGTDFTLTISSLQPEDFAVYYCQQHYITPLTFGAGTKVEIKRTVAAPSVFIFPPSDEQLKSGTASVVCLLNNFYPREAKVQWKVDNALQSGNSQESVTEQDSKDSTYSLSSTLTLSKADYEKQKVYACEVTHQGLSSPVTKSFLRGECGGPAGGGGGTHTCPPCPAPEAAGGPSVFLFPPKPKDTLMISRTPEVTCVVVDVSHEDPEVKFNWYVDGVEVHNAKTKPREEQYNSTYRVVSVLTVLHQDWLNGKEYKCKVSNKALPAPIEKTISKAKGQPREPQVCTLPPSRDELTKNQVSLSCAVKGFYPSDIAVEWESNGQPENNYKTTPPVLDSDGSFFLVSKLTVDKSRWQQGNVFSCSVMHEALHNHYTQKSLSLSPGK
heavy: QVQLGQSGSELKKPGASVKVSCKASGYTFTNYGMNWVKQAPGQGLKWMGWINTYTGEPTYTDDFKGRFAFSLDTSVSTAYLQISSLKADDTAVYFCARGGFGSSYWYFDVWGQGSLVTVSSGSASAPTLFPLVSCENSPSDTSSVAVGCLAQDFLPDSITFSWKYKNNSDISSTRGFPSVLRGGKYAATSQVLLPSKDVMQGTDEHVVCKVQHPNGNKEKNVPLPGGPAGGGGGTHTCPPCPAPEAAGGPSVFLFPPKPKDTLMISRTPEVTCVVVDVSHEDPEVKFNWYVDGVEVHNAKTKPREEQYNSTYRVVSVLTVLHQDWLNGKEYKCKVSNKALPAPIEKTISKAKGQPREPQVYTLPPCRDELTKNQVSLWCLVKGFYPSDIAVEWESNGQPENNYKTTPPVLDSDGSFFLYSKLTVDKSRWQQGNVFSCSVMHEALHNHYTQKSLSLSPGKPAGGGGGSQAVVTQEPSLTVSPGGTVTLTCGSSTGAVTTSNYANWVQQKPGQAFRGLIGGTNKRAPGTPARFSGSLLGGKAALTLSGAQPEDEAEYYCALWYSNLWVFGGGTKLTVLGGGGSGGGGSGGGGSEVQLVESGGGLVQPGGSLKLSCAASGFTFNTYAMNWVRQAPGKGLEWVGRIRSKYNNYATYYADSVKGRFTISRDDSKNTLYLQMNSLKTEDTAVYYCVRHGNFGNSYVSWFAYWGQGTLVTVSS
With B5, in test [3], the “DLD1 cytotoxicity EC50 (18 h, T cells)” value is 8 pM.

B6: TetrAx 17v9-18 (Trop2 x CD3) (bispecific antibody)
light: QAVVTQEPSLTVSPGGTVTLTCGSSTGAVTTSNYANWVQEKPGQAFRGLIGGTNKRAPGTPARFSGSLLGGKAALTLSGAQPEDEAEYYCALWYSNLWVFGCGTKLTVLRTVAAPSVFIFPPSDEQLKSGTASVVCLLNNFYPREAKVQWKVDNALQSGNSQESVTEQDSKDSTYSLSSTLTLSKADYEKHKVYACEVTHQGLSSPVTKSFNRGECGGPAGGGGGTHTCPPCPAPEAAGGPSVFLFPPKPKDTLMISRTPEVTCVVVDVSHEDPEVKFNWYVDGVEVHNAKTKPREEQYNSTYRVVSVLTVLHQDWLNGKEYKCKVSNKALPAPIEKTISKAKGQPREPQVCTLPPSRDELTKNQVSLSCAVKGFYPSDIAVEWESNGQPENNYKTTPPVLDSDGSFFLVSKLTVDKSRWQQGNVFSCSVMHEALHNHYTQKSLSLSPGKGGGGGGQVQLGQSGSELKKPGASVKVSCKASGYTFTSYAMNWVRQAPGQGLKWMGWINTYTGETPYTDDFKGRFAFSLDTSVSTAYLQISSLKADDTAVYFCARGGFGSSYWYFDVWGQGTLVTVSSGGGGSGGGGSGGGGSDIQLTQSPSSLSASVGDRVSITCKASQDVSIAVAWYQQKPGKAPKLLIYSASYRYTGVPDRFSGSGSGTDFTLTISSLQPEDFAVYYCQQHYITPLTFGAGTKVEIK
heavy: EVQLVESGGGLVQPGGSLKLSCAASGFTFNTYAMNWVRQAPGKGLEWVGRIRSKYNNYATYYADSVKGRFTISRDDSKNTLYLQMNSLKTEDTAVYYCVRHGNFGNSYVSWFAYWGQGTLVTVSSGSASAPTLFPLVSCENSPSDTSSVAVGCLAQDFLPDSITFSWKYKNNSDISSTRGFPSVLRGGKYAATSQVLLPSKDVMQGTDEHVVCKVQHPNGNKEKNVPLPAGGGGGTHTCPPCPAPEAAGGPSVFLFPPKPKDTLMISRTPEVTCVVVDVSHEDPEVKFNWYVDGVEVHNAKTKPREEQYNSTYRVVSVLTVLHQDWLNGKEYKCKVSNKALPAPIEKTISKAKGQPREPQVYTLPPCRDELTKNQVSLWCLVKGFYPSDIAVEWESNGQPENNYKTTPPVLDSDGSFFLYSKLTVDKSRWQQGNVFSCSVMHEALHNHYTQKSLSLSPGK
As for B6, the “DLD1 cytotoxicity EC50 (18 h, T cells)” value in test [3] is ~3 pM.
